# Results as given in patent US20250195679A1, “ANTIBODY-DRUG CONJUGATE AND USE THEREOF” (SHANGHAI HUAOTA BIOPHARMACEUTICAL CO., LTD., priority 2022, published 2025).
# T1: Human CD73 (Homo sapiens, UniProt P21589)
# T1 sequence (P21589 27-547 limits assumed): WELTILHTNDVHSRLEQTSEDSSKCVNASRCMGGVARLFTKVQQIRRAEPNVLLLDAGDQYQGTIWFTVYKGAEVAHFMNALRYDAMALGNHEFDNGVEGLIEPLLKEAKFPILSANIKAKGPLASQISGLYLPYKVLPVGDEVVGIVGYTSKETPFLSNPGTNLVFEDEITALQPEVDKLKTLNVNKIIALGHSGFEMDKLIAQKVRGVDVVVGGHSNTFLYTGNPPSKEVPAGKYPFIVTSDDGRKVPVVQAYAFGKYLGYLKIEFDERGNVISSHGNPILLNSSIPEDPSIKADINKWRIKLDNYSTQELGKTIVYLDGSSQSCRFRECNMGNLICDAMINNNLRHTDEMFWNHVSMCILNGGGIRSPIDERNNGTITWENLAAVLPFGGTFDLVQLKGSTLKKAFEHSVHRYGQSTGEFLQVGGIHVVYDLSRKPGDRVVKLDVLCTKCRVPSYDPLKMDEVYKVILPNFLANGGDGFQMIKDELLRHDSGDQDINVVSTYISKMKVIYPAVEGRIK
# Experiments:
# [1] = test system: Monkey CD73; assay: Biacore binding kinetics with monkey CD73 protein; details: Monkey CD73, Biacore T200, protein A chip, 25° C., 1:1 binding model
# Description: (§1) The binding kinetics of the antibody-drug conjugate 1 and the antibody-drug conjugate 2 prepared in Example 1 and the 900698 naked antibody with a human CD73 protein (manufacturer: ACRO Biosystems, Cat. No. CD3-H52H7) and a monkey CD73 protein (manufacturer: Novoprotein, Cat. No. CI21) were assayed using Biacore (GE, model: T200), with an assay buffer of HBS-EP+ (pH 7.4) and a protein A chip (manufacturer: GE, Cat. No. 29-1275-56).
# (§2) The temperature for the sample compartment and the flow path was set to 25° C. The protein A chip captured each antigen-binding protein as a ligand, fixing about 100 RU. The human CD73 protein was diluted with the assay buffer to a series of concentrations of 50 nM, 25 nM, 12.5 nM, 6.25 nM, 3.12 nM, and 1.57 nM, serving as analytes, and the assay buffer was used as a 0 concentration control. At a flow rate of 30 μL/min, association was conducted for 120 s, and dissociation was conducted for 600 s. Glycine (10 mM, pH 1.5) was used for regeneration at a flow rate of 50 μL/min for 60 s in a multi-cycle kinetic assay. A 1:1 binding model was used, and the Fit Local mode was selected to determine the association rate constant (ka), dissociation rate constant (kd), and equilibrium dissociation constant (KD).
# [2] = biological target: T1, Human CD73; assay: Biacore binding kinetics with human CD73 protein; set-up: purchased ACRO Biosystems CD3-H52H7; details: Human CD73, Biacore T200, protein A chip, 25° C., 1:1 binding model
# Description: as §1, §2
# [3] = test system: MCF-7 cells; assay: Killing of tumor cells not expressing CD73 (CellTiter-Glo); type: cell-based; details: cells not expressing CD73, 5 days, FIG. 5
# Description: (§3) The specific procedures were as follows: MDA-MB-231 cells and MCF-7 cells were prepared into cell suspensions at densities of 8E4 cells/mL and 7.5E5 cells/mL, respectively, which were then each added onto a 96-well cell culture plate at 100 μL per well. The 96-well cell culture plate was sealed with liquid and then incubated in an incubator at 37° C. with 5% CO2 for 6 h. With an assay medium, the antibody-drug conjugate 1, the antibody-drug conjugate 2, and the 900698 naked antibody were each diluted to 400 μg/mL and then subjected to a 2-fold dilution to give 8 concentrations, resulting in a total of 9 concentrations. The same dilution procedure was performed for the Buffer solution as for the antibody-drug conjugate 1. The gradient dilution solutions were each added at 50 μL/well to the 96-well cell culture plate after the above incubation was completed. Each sample well was then supplemented with 50 μL of the corresponding assay medium. The 96-well cell culture plate was further incubated in an incubator at 37° C. with 5% CO2 for another 5 days. After the incubation was completed, the 96-well plate was removed from the incubator, 100 μL of culture medium was aspirated from each well, and then the equilibrated Celltiter-Glo Luminescent Cell Viability Assay reagent (Promega, #G7573) was added at 100 μL/well. After shaking for reaction in the dark at room temperature for 10 min, 100 μL of culture medium was taken from each well, transferred to the corresponding well of a 96-well black plate, and then subjected to full-wavelength detection using a microplate reader.
# [4] = biological target: T1, Human CD73; assay: Inhibition of enzymatic activity of soluble recombinant CD73 protein (AMP/ATP, CellTiter-Glo); type: biochemical; set-up: purchased ACRO CD3-H52H7-100 μg; details: FIG. 3; the three samples compared with each other
# Description: The inhibitory effects of the antibody-drug conjugate 1 and the antibody-drug conjugate 2 prepared in Example 1 and the 900698 naked antibody on the enzymatic activity of a recombinant CD73 protein (ACRO, #CD3-H52H7-100 μg) were assayed. The specific procedures were as follows: The series of CD73 antigen-binding proteins were diluted to 120 μg/mL with TM Buffer (ROCKLAND, #MB-059), followed by a 3-fold dilution across 10 gradients. The diluted proteins were each added at 25 µL/well to a 96-well plate. The recombinant CD73 protein was then diluted to 0.3 μg/mL with TM Buffer (ROCKLAND, #MB-059) and added at 25 μL/well to the 96-well plate. The mixture was mixed uniformly. Then, diluted AMP and ATP were mixed at a ratio of 1:1, and the mixture was added at 50 μL/well to the above 96-well plate. The resulting mixture was allowed to react for 15 min. Finally, a CellTiter-Glo® substrate was added to a CellTiter-Glo® buffer. The mixture was mixed uniformly and equilibrated to room temperature, and then added at 100 μL/well to the wells to be tested. The resulting mixture was allowed to react at room temperature for 10 min and then subjected to full-wavelength detection.
# The results for the inhibition of the enzymatic activity of the soluble recombinant CD73 antigen protein (ACRO, #CD3-H52H7-100 μg) by the antibody-drug conjugate 1, the antibody-drug conjugate 2, and the 900698 naked antibody are shown in FIG. 3 (represented as 1-3 in FIG. 3, respectively).
# [5] = test system: MDA-MB-231 cells; assay: Killing of tumor cells highly expressing CD73 (CellTiter-Glo); type: cell-based, human; details: cells highly expressing CD73, 5 days, FIG. 6
# Description: as §3
Molecule,ka [1],kd [1],ka [2],kd [2],killing effect on MCF-7 cells [3],inhibitory effect on the enzymatic activity of the soluble recombinant CD73 protein [4],killing effect on MDA-MB-231 cells [5]
"Antibody-drug conjugate 1: 900698 antibody cysteine-conjugated to SN-38 via Mc-VC-PAB-DMEDA-PEG linker, DAR about 7.8 (conjugate) VH: QVQLVESGGGLVKPGGSLRLSCAASGFTFSKYAMSWIRQAPGKGLEWVAEISSGGGYINYADSVKGRFTISRDNAKNSLYLQMNSLRAEDTAVYYCARAIYYYGSSYNYYAMDYWGQGTTVTVSS VL: DIQMTQSPSSLSASVGDRVTITCRASQDVGTAEAWYQQKPGKAPKLLIYWASTRHTGVPSRFSGSGSGTDFTLTISSLQPEDFATYYCQQYSSYPLTFGQGTKLEIK",55000 M⁻¹ s⁻¹,1.92e-06 s⁻¹,381000 M⁻¹ s⁻¹,0.000129 s⁻¹,no killing effect,comparable inhibitory effects,excellent killing effects
"900698: anti-CD73 antibody, VH SEQ ID NO: 35, VL SEQ ID NO: 34 (antibody, V domains shown, 900696, 900698 (VH); 900695, 900698 (VL)) VH: QVQLVESGGGLVKPGGSLRLSCAASGFTFSKYAMSWIRQAPGKGLEWVAEISSGGGYINYADSVKGRFTISRDNAKNSLYLQMNSLRAEDTAVYYCARAIYYYGSSYNYYAMDYWGQGTTVTVSS VL: DIQMTQSPSSLSASVGDRVTITCRASQDVGTAEAWYQQKPGKAPKLLIYWASTRHTGVPSRFSGSGSGTDFTLTISSLQPEDFATYYCQQYSSYPLTFGQGTKLEIK",148000 M⁻¹ s⁻¹,1.8e-05 s⁻¹,147000 M⁻¹ s⁻¹,0.000104 s⁻¹,no killing effect,comparable inhibitory effects,no killing effect
"Antibody-drug conjugate 2: 900698 antibody cysteine-conjugated to SN-38 via MP2-VC-PAB-DMEDA-PEG linker, DAR about 7.8 (conjugate) VH: QVQLVESGGGLVKPGGSLRLSCAASGFTFSKYAMSWIRQAPGKGLEWVAEISSGGGYINYADSVKGRFTISRDNAKNSLYLQMNSLRAEDTAVYYCARAIYYYGSSYNYYAMDYWGQGTTVTVSS VL: DIQMTQSPSSLSASVGDRVTITCRASQDVGTAEAWYQQKPGKAPKLLIYWASTRHTGVPSRFSGSGSGTDFTLTISSLQPEDFATYYCQQYSSYPLTFGQGTKLEIK",454000 M⁻¹ s⁻¹,0.000114 s⁻¹,643000 M⁻¹ s⁻¹,0.000228 s⁻¹,no killing effect,comparable inhibitory effects,excellent killing effects
